# The nanobody polyreactivity screen of Harvey et al. (2022)
# Assay: yeast display, Sf9 membrane polyspecificity reagent, FACS + sequencing; frameworks hold sequencing errors
# Summary of the method: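 After 36–48 hours of galactose induction, yeast (Saccharomyces cerevisiae BJ5465) displaying a synthetic nanobody library were stained at 4 °C for 1 hour with 10% biotinylated, detergent-solubilized Sf9 membrane reagent. Streptavidin microbeads enriched the stained cells before FACS sorting into low and high (top ~1%) gates on anti-HA and streptavidin fluorescence. Each clone's polyreactivity label reflects its gate of origin.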
row,Sequence,polyreactivity (PSR sort gate)
1,QVQLVESGGGLVQAGGSLRLSCAASGRTGVNAMGWYRQAPGKERGMVAAINTSVGRTYYADSVKGRFTISRDNAKNTVYLQMNSLKPEDTAVYYCNTDRLGAARYDYWGQGTQVTVSS,low polyreactivity
2,QVQLVESGGGLVQAGGSLRLSCAASGRTICRNVMGWYRQAPGKERELVAAISRSGGSTYYADSVKGRFTISRDNAKNTVYLQMNSLKPEVTAVYYCAAYSVGDYYWGQGTQVTVSS,high polyreactivity
3,QVQLVESGGGLVQAGGSLRLSCAASGRTIDDYDMGWYRQAPGKERELVADINSGGSTYYADSVKGRFTISRDNAKNTVYLQMNSLKPEDTAVYYCAATLVPWPYTGPRYGYWGQGTQVTVSS,high polyreactivity
4,QVQLVESGGGLVQAGGSLRLSCAASGRTIDHYAMGWYRQAPGKERELVAAISTTGGSTYYADSVKGRFTISRDNAKNTVYLQMNSLKPEDTAVYYCAARGLRTGGYWGQGTQVTVSS,high polyreactivity
5,QVQLVESGGGLVQAGGSLRLSCAASGRTIGAYAMGWYRQAPGKEREFVAAITFGGGPTYYADSVKGRFTISRDNAKNTVYLQMNSLKPEDTAVYYCAKRIDLSLPYARYDYWGQVTQVTVSS,low polyreactivity
6,QVQLVESGGGLVQAGGSLRLSCAASGRTIGGYAMGWYRQAPGKEREMVAAINYSGGTTYYADSVKGRFTISRDNAKNTVYLQMNSLKPEDTAVYYCIRDYHSESGNPGYQYGYWGQGTQVTVSS,high polyreactivity
7,QVQLVESGGGLVQAGGSLRLSCAASGRTIGINAMGWYRQAPGKERELVAVISFGDGGTYYADSVKGRFTISRDNAKNTVYLQMNSLKPEDTEVYYCATDYQSTSVWGGHFVINPYDYWGQGTQVTVSS,low polyreactivity
8,QVQLVESGGGLVQAGGSLRLSCAASGRTIGVYAMGWYRQAPGKERELVAAISWSGGTTYYADSVKGRFTISRDNAKNTVYLQMNSLKPEDTAVYYCAADSYTEVDYWGQGSQVTVSS,low polyreactivity
9,QVQLVESGGGLVQAGGSLRLSCAASGRTIKYYAMGWDRQAPGKERELVAVISWSGGSTYYADSVKGRFTISRDNAKNTVYLQMISLKPEDTAVYYCNAYVYAYYAGYNYWGQGTQVTVSS,high polyreactivity
10,QVQLVESGGGLVQAGGSLRLSCAASGRTILVYAMGWYRQAPGKERELVAAISRSGGSTYYADSVKGRFTISRDNAKNTVYLQMNSLKPEDTAVYYCAAKNTGRYYWGQGTQVTVSS,high polyreactivity
11,QVQLVESGGGLVQAGGSLRLSCAASGRTINPYGMGWYRPAPGKERELVADINSGGITNYADSVKGRFTISRDNAKNTVYLQMNSLKPEDTAVYYCNADGFIQPDDWRNFAGDYWGQGTQVTVSS,low polyreactivity
12,QVQLVESGGGLVQAGGSLRLSCAASGRTIRFNAMGWYRQAQGKESELVAAISFSGGNTYYADSVKGRFTISRDNAKNTVYIQMNSLKPDDTAVYYCAARFTYRYYNYLKYDYWGKGTQVTVSS,high polyreactivity
13,QVQLVESGGGLVQAGGSLRLSCAASGRTIRGYTMGWYRQSAGTERELVATITKRGGSTTYADSVKGRFTISRDNAKNTVYLQMNSLKPEDTAVYYCNKDTITSTLTPYTSWFGYWGQGTQVTVSS,high polyreactivity
14,QVQLVESGGGLVQAGGSLRLSCAASGRTIRRYAMGWYRQAPGKERELVAAISYSGGSTYYADSVKGRFTISRDNAKNTVYLQMNSLKPEDTAVYYCAARYLGKKYYYWGQGTQVTVSS,high polyreactivity
15,QVQLVESGGGLVQAGGSLRLSCAASGRTIRSYAMGWYRQAPGKERELVAAITGSGGRTYYADSVKGRFTISRDNAKNTVYLQLNSLKPEDTAVYYCAARLRGSYDYWGQGTQVTVSS,high polyreactivity
16,QVQLVESGGGLVQAGGSLRLSCAASGRTIRWNAMGWYRQAPGKERELVAAITSRGGSTYYADSVKGRFTISRDNAKNTVYLQMNSLKPEDTAVYYCAKQPKPPPVTGYDYWGQGTQVTVSS,high polyreactivity

row,Sequence,polyreactivity (PSR sort gate)
1,QVQLVESGGGLVQAGGSLRLSCAASGRTIRWYTMGGYRQAPGKEMELVAGISSSGGSTYYADSVKGRFTISRDNAMNTVYLQMNSLKPEDTAVYYCNAQALRLFWRYDYWGQGTQVTVSS,low polyreactivity
2,QVQLVESGGGLVQAGGSLRLSCAASGRTIRYYAMGWYRQAPGKERELVAAISWNGANTYYADSVKGRFTISRDNAKNTVYLQMNSLKPEDTAVYYCAATYYRWKGYDYWGQGTQVTVSS,high polyreactivity
3,QVQLVESGGGLVQAGGSLRLSCAASGRTISFNTMAWYRQAPGKERDLVAGIERGGSTNYADSVKVRFTISRDNAKNTVYFQMNSLKPEDTAVYYCAARNLRYRYRNYDYWGQGTQVTVSS,high polyreactivity
4,QVQLVESGGGLVQAGGSLRLSCAASGRTISKNTMGWYRQAPGKERELVAAISSSGGSTNYADSVKGRFTISRDNAKNTVYLQMNSLKPEETAVYYCAADPWRFRSRPVNYWGQGTQVSVSS,high polyreactivity
5,QVQLVESGGGLVQAGGSLRLSCAASGRTISVYGMGWYRQAPGKERELVASITWRGGTTYYADSVKGRFTISRDNAKNTVYLQMNSLKPEDTAVYYCAAYWPYTTYRYRYDYWGQGTQVTVSS,high polyreactivity
6,QVQLVESGGGLVQAGGSLRLSCAASGRTISYAMGWYRQAPGKEREMVAAIRYRGGSTYYADSVKGRFTISRDNAKNTVYLQMNSLKPEDTAVYYCAAQDSYTPPILFRRGYLRYDYWGQGTQVTVSS,low polyreactivity
7,QVQLVESGGGLVQAGGSLRLSCAASGRTITRNALGWYRQAPGKERELVASINRGGSTNYADSVKGRFTISRDNAKNTDYLQMNSLNPEDTAVYYCYYHVYEQYFWVEYDYWGQGTQVTVSS,high polyreactivity
8,QVQLVESGGGLVQAGGSLRLSCAASGRTITRNAMGWYRQAPGKERELVAAITTTGGSTYYADYVKGRFTISRDNAKNTVYLQMNSLKPEDNAVYYCNADWVGPFRRATNITTYFGYDYWGQGTQVTVSS,low polyreactivity
9,QVQLVESGGGLVQAGGSLRLSCAASGRTIVRYAMGWYRQAPGKERDLVAAITARGGSTYYADSVKGRFTISRDNAKNTVYLQMNRLKPEDTEVYYCATYYSGSLGRYYYWGKGTQVTVSS,high polyreactivity
10,QVQLVESGGGLVQAGGSLRLSCAASGRTIVVYGMGWYRQAPGKERELVATINYGGNTYYADSVKGRFTISRDNAKNTVYLQLNSLKPEDTAVYYCATRSYARYYTYDYWGQGTQVTVSS,low polyreactivity
11,QVQLVESGGGLVQAGGSLRLSCAASGRTIWWYAMGWYRQAPGKERELVAAITWIGGSTYYADSVKGRFTISRDNAKNTVYLKMNSLKPEDTAVYFCNVVYYGRTWVPYEWEYDYWGQGTQVTVSS,low polyreactivity
12,QVQLVESGGGLVQAGGSLRLSCAASGRTIYLNAMGWYRQAPGKERELVAAISRNGGSTYYADSVKGRFTISRDNAKNTVYLQMNSLKPEDTAVYYCAAEWDDGRSWYWYYLVGFEYWGQGTQVTVSS,high polyreactivity
13,QVQLVESGGGLVQAGGSLRLSCAASGRTIYRYAMGWYRQAPGKERELVAAISRRGGSTYYADSVKGRFTISRDNAKNTVYLHMNSLKPEDSAVYYCNAPFGDVYRTDDYWGQGTQVTVSS,high polyreactivity
14,QVQLVESGGGLVQAGGSLRLSCAASGRTIYSNAMGGYRQAPGKERELVAAITGSSGSTYYADSVKGRFTISRDNAKNTVYLQMNSLKPEDTAVYYCAASCYCSLVRQLRLRGQGTQVTVSS,low polyreactivity
15,QVQLVESGGGLVQAGGSLRLSCAASGRTIYYNGMGWDRQAPGKERELVAAITSGGTTSYADSVKGRFTISRDNAKNTVYLQMNSLKPEDTAVYYCARVTDGVVYEYDYWGQGTQVTVSS,low polyreactivity
